# B1: TPR t1 (parent)
# chain: GACCAAUCUGCCCUCAGAGCUCGAGAACAUCUUCGGAUGCAGAGGAGGCAGGCUUCGGUGGCGCGAUAGCGCCAACGUCCUCAACCUCCAAUGCAUCCCACCACAUGAUGAUGCCUGAAGAGCCUUGGUUUUUUG
# Variants of: B1
# Assay: polymerase ribozyme fitness, log enrichment relative to wild type (log ratio); higher = more active; in vitro selection for triplet polymerase activity
# Outline: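 Input and output libraries were sequenced on Illumina after a single in vitro selection round, run in triplicate on PCR-built, transcribed mutant libraries of each subunit of a heterodimeric triplet polymerase ribozyme. Selection annealed libraries to a biotinylated primer, the partner subunit and triplets, incubated them frozen at −7 °C, then gel-excised extended constructs for streptavidin-bead capture and RT-PCR. Genotypes with ≥10 input reads and ≥1 read per output were kept. Fitness is the logarithm, taken in base 2, of genotype enrichment divided by wild-type enrichment, using inverse-variance-weighted replicate averages.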
row,Variant,polymerase ribozyme fitness (log ratio)
1,GACCAAUCUGCCCUCAGAGCUCGAGAACAUCUUCGGAUGCAGAGGAGGCAAGCUUCGGUGGCGCGAUAGCGCCAACGUCCUCAACCUCCAAUGCAUCCCUCCACAUGAUGAUGCCUGAAGAGCCUUGGUUUUUUG,-4.16
2,GACCAAUCUGCCCUCAGAGCUCGAGAACAUCUUCGGAUGCAGAGGAGGCUGGCUUCGGUGGCGCGAUAGCGCCAACGUCCUCAACCUCCAAUGCAUCCCACCACAUGAUGAUGCCUGAAGAGCCGUGGCUUUUUG,-2.41
3,GACCAAUCUGCCCUCAGAGCUCGAGAACAUCUUCGGAUGCAGAGGAGGCUGGCUUCGGUGGCGCGAUAGCGCCAACGUCCUCAACCUCCAAUGCAUCCCACCACAUGAAGCUGCCUGAAUGGCCUUGGUUUUUUG,-6.95
4,GACCAAUCUGCCCUCAGAGCUCGAGAACAUCUUCGGAUGCAGAGGAGGCAAGCUUCGGUGGCGCGAUAGCGCCAACGUCCUCAACCUCCAAUGCAUCCCACCGCAUGAUGAUGCCUGAAGAGCCUUGGUUUUUUG,-6.42
5,GACCAAUCUGCCCUCAGAGCUCGAGAACAUCUUCGGAUGCAGAGGAGGCAAGCUUCGGUGGCGCGAUAGCGCCAACGUCCUCAACCUCCGAUGCAUCCCACCACAUGAUGAUCCCUGAAGAGCCUUGGUUUUUUG,-5.54
6,GACCAAUCUGCCCUCAGAGCUCGAGAACAUCUUCGGAUGCAGAGGAGGCAAGUUUCGGUGGGGCGAUAUCGCCAACGUCCUUAACCUCCAAUGCAUCCCACCACAUGAUGAUGCCUGAAUAGCCUUGGUUUUUUG,-6.98
7,GACCAAUCUGCCCUCAGAGCUCGAGAACAUCUUCGGAUGCAGAGGAGGCAAGCUUCGGUGGAGCGAUAGCGCCAACGUCCUCAACCUCCAAUGCAUCCCACCACAUGAUGAUGCCUUAAGAGCCUUGGUUUUUGG,-5.73
8,GACCAAUCUGCCCUCAGAGCUCGAGAACAUCUUCGGAUGCAGAGGAGGCAAGCUUCGGUGGCGAGAUAGCGCCAACGUCCUCACCCUCCAAUGCAUCCCACCACAUGAUGAUGCCUCAAGAGCCUUGGUUUUUUG,-6.48
9,GACCAAUCUGCCCUCAGAGCUCGAGAACAUCUUCGGAUGCAGAGGAGGCAAGCUUCGGUGGCGCGAUAGCGCCGACGUCCUCAACCUCCAAUGCAUCCCACCACAUGAUGAUGCCUGAAGAGCCUUGGUUUUUUG,-1.96
10,GACCAAUCUGCCCUCAGAGCUCGAGAACAUCUUCGGAUGCAGAGGAGGCUGGCUUCGGUGGCGCGAUAGCGCCAACGUCCUCAACCUCCAAUGCAUCCCACCACAUGAAGAUGCCUGAAGAGCCUUGGUUUUUUG,-5.95
11,GACCAAUCUGCCCUCAGAGCUCGAGAACAUCUUCGGAUGCAGAGGAGGCAAGCUUUGGUGGCCCGAUAGCGCCAACGUCCUCAUCCUCCAAUGCAUCCUACCACAUGAUGAUGCCUGAAGUGCCUUGGUUUUUUG,-6.23
12,GACCAAUCUGCCCUCAGAGCUCGAGAACAUCUUCGGAUGCAGAGGAGGCAAGCUUUGGUGGCGCGAUAGCGCCAACGUCCUCAACCUCCAAUGCAUCCCACCACAUGAUGAUGCCUGAAGAGCCUUGGUUUUUUG,-0.934
13,GACCAAUCUGCCCUCAGAGCUCGAGAACAUCUUCGGAUGCAGAGGAGGCAAGCUUGGGUGGCGCGAUAGCGCCAACGUCCUCAACCUCCAAUGCAUCCCACCACAUGAUGAUGCCUGAAGAGCCUUGGUUUUUUG,-2.03
14,GACCAAUCUGCCCUCAGAGCUCGAGAACAUCUUCGGAUGCAGAGGAGGCAAGCUUCGGUGGCGCGAUAGCGCCAACGUCCUCGACCUCCAAUGCAUCCCACCACAUGAUGAUGCCUGAAUAGGCUUGUUUUUUUG,-2.51
15,GACCAAUCUGCCCUCAGAGCUCGAGAACAUCUUCGGAUGCAGAGGAGGCAAGCUUCGGUGGCGCGAUAGCGCCAACGUCCUCAACCUCCAAUGCAUCCCACCACAUGAUGAUGCCUGAAGAGCCUUGGUUUUUUG,-2.49
16,GACCAAUCUGCCCUCAGAGCUCGAGAACAUCUUCGGAUGCAGAGGAGGCAAGCUUCGGUGGAGCGAUAGCGCCACCGUCCUCAACCUCCAAUGCAUCCCACCACAUGAUGAUGCCUGAAGAGCCUUGGUUAUUUG,-5.36
17,GACCAAUCUGCCCUCAGAGCUCGAGAACAUCUUCGGAUGCAGAGGAGGCAAGAUUCGGUGACGCGAUAGCGCUAACGUCCUCAACCUCCAAUGCAUCCCACCACAUGAUGAUGCCUGAAGAGCCUUGGUUUUUUG,-2.68
18,GACCAAUCUGCCCUCAGAGCUCGAGAACAUCUUCGGAUGCAGAGGAGGCUGGCUUCGGUGGCGCGAUAGCGCCAACGUCCUCAACCUCCAAUGCAUCCCACCACAGGAUGAUGCCUGAAGAGCCUUGGUUUUUUG,-2.78
19,GACCAAUCUGCCCUCAGAGCUCGAGAACAUCUUCGGAUGCAGAGGAGGCAAGCUUCGGUGGCGCGAUAGCGCCAACGUCCUCAACCUCCAAUGCUUCCCACCACAUGAUGAUGCCUGAAGAGCCUUGGUUUUUUG,-3
20,GACCAAUCUGCCCUCAGAGCUCGAGAACAUCUUCGGAUGCAGAGGAGGCAAGCUUCGGUGGCGAGAUAGCGCCAACGCCCUCACCCUCCAAUGCAUCCCACCACAUGAUGAUGCCUCAAGAGCCUUGGUUUUUUG,-6.38
21,GACCAAUCUGCCCUCAGAGCUCGAGAACAUCUUCGGAUGCAGAGGAGGCAAGCUUCGGUGGCGCGAUAGCGCCGACGUCCUCAACCUCCAAUGCAUCCCACCACAUGAUGAUGCCUGAAGAGCCUUGGUUAUUUG,-1.77

# From the RNAGym collection of RNA variant scans (doi:10.1073/pnas.2313332121)
